The supplement of paper PMC7125110
± gives the standard error. For some assays here: Fewer inactive variants are shown than the library holds.

B1: glmS ribozyme (parent)
chain: AUAAAAGCGCCAGAACUACAGAAAUGUAGUUGACGAGGAGGAGGUUUAUCGAAUUUUCGGCGGAUGCCUCCAAA

Assays:
Settings in all cases: with glucosamine-6-phosphate
glucosamine-6-phosphate [1] = variants of: B1; experiment: kcat; higher = faster cleavage; RNA array
Method in brief: (§1)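 kobs was derived by fitting per-tile medians to one- or two-exponential decays after normalising signals to baseline and to non-cleaving reference variants. Those signals came from barcoded ribozyme variants transcribed in situ by E. coli RNA polymerase on sequenced MiSeq chips, followed through a hybridised Cy3 probe at 37 °C and imaged over ~14 h. Glucosamine-6-phosphate (40 μM to 10 mM) in HEPES/KCl/Mg(OAc)2 buffer was flowed in. Weighted Michaelis–Menten fits across concentrations then gave kcat and KM.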

glucosamine-6-phosphate [2] = variants of: B1; experiment: KM; higher = weaker cofactor use; RNA array
Method in brief: as §1

glucosamine-6-phosphate [3] = variants of: B1; experiment: self-cleavage kobs at 160 uM GlcN6P; higher = faster cleavage; RNA array
Method in brief: as §1

glucosamine-6-phosphate [4] = variants of: B1; experiment: self-cleavage kobs at 640 uM GlcN6P; higher = faster cleavage; RNA array
Method in brief: as §1

glucosamine-6-phosphate [5] = variants of: B1; experiment: self-cleavage kobs at 2500 uM GlcN6P; higher = faster cleavage; RNA array
Method in brief: as §1

glucosamine-6-phosphate [6] = variants of: B1; experiment: self-cleavage kobs at 10000 uM GlcN6P; higher = faster cleavage; RNA array
Method in brief: as §1

glucosamine-6-phosphate [7] = variants of: B1; experiment: self-cleavage kobs at 40 uM GlcN6P; higher = faster cleavage; RNA array
Method in brief: as §1

A12U U57A
kcat (glucosamine-6-phosphate [1]): 0.00082 ± 0.00011 s⁻¹ | KM (glucosamine-6-phosphate [2]): 4.04 ± 0.88 mM | self-cleavage kobs at 160 uM GlcN6P (glucosamine-6-phosphate [3]): 4.56e-05 ± 1.7e-05 s⁻¹ | self-cleavage kobs at 640 uM GlcN6P (glucosamine-6-phosphate [4]): 0.000113 ± 2e-05 s⁻¹ | self-cleavage kobs at 2500 uM GlcN6P (glucosamine-6-phosphate [5]): 0.000287 ± 5e-05 s⁻¹ | self-cleavage kobs at 10000 uM GlcN6P (glucosamine-6-phosphate [6]): 0.000604 ± 8.4e-05 s⁻¹

G13A A39G C61G C70A
kcat (glucosamine-6-phosphate [1]): < 1e-05 s⁻¹

G13C G66U
kcat (glucosamine-6-phosphate [1]): < 1e-05 s⁻¹ | KM (glucosamine-6-phosphate [2]): 0.766 ± 0.35 mM | self-cleavage kobs at 160 uM GlcN6P (glucosamine-6-phosphate [3]): < 1e-05 s⁻¹

A14C A53G
kcat (glucosamine-6-phosphate [1]): 0.00897 ± 0.0044 s⁻¹ | self-cleavage kobs at 40 uM GlcN6P (glucosamine-6-phosphate [7]): 0.00012 ± 1.8e-05 s⁻¹ | self-cleavage kobs at 160 uM GlcN6P (glucosamine-6-phosphate [3]): 0.000245 ± 3.7e-05 s⁻¹ | self-cleavage kobs at 640 uM GlcN6P (glucosamine-6-phosphate [4]): 0.00116 ± 0.00015 s⁻¹ | self-cleavage kobs at 2500 uM GlcN6P (glucosamine-6-phosphate [5]): 0.0024 ± 0.00037 s⁻¹ | self-cleavage kobs at 10000 uM GlcN6P (glucosamine-6-phosphate [6]): 0.00721 ± 0.001 s⁻¹

A12U G59A
kcat (glucosamine-6-phosphate [1]): 0.000207 ± 1.4e-05 s⁻¹ | KM (glucosamine-6-phosphate [2]): 3.14 ± 0.43 mM | self-cleavage kobs at 640 uM GlcN6P (glucosamine-6-phosphate [4]): 3.84e-05 ± 8.7e-06 s⁻¹ | self-cleavage kobs at 2500 uM GlcN6P (glucosamine-6-phosphate [5]): 8.97e-05 ± 8.8e-06 s⁻¹ | self-cleavage kobs at 10000 uM GlcN6P (glucosamine-6-phosphate [6]): 0.000159 ± 1.8e-05 s⁻¹

G13U C61A
kcat (glucosamine-6-phosphate [1]): 1.33e-05 ± 2.2e-06 s⁻¹

A12U G43C
kcat (glucosamine-6-phosphate [1]): 1.4e-05 ± 1.4e-06 s⁻¹ | KM (glucosamine-6-phosphate [2]): 6.95 ± 1.5 mM | self-cleavage kobs at 160 uM GlcN6P (glucosamine-6-phosphate [3]): < 1e-05 s⁻¹ | self-cleavage kobs at 640 uM GlcN6P (glucosamine-6-phosphate [4]): < 1e-05 s⁻¹

A14C G29C
kcat (glucosamine-6-phosphate [1]): 0.00095 ± 0.00038 s⁻¹ | self-cleavage kobs at 640 uM GlcN6P (glucosamine-6-phosphate [4]): 6.24e-05 ± 1.5e-05 s⁻¹ | self-cleavage kobs at 2500 uM GlcN6P (glucosamine-6-phosphate [5]): 0.000139 ± 2.5e-05 s⁻¹ | self-cleavage kobs at 10000 uM GlcN6P (glucosamine-6-phosphate [6]): 0.000438 ± 6.2e-05 s⁻¹

A14C U69G
kcat (glucosamine-6-phosphate [1]): 4.01e-05 ± 6.9e-06 s⁻¹ | self-cleavage kobs at 160 uM GlcN6P (glucosamine-6-phosphate [3]): 6.28e-05 ± 2.1e-05 s⁻¹ | self-cleavage kobs at 640 uM GlcN6P (glucosamine-6-phosphate [4]): 5.28e-05 ± 2.2e-05 s⁻¹ | self-cleavage kobs at 2500 uM GlcN6P (glucosamine-6-phosphate [5]): 4.06e-05 ± 9.1e-06 s⁻¹ | self-cleavage kobs at 10000 uM GlcN6P (glucosamine-6-phosphate [6]): 3.03e-05 ± 1.2e-05 s⁻¹

G13A U49C
kcat (glucosamine-6-phosphate [1]): < 1e-05 s⁻¹ | self-cleavage kobs at 40 uM GlcN6P (glucosamine-6-phosphate [7]): < 1e-05 s⁻¹ | self-cleavage kobs at 10000 uM GlcN6P (glucosamine-6-phosphate [6]): < 1e-05 s⁻¹

A14C U45G
kcat (glucosamine-6-phosphate [1]): 0.00127 ± 0.00013 s⁻¹ | KM (glucosamine-6-phosphate [2]): 3.41 ± 0.6 mM | self-cleavage kobs at 160 uM GlcN6P (glucosamine-6-phosphate [3]): 6.63e-05 ± 1.5e-05 s⁻¹ | self-cleavage kobs at 640 uM GlcN6P (glucosamine-6-phosphate [4]): 0.000181 ± 2.6e-05 s⁻¹ | self-cleavage kobs at 2500 uM GlcN6P (glucosamine-6-phosphate [5]): 0.000606 ± 9.4e-05 s⁻¹ | self-cleavage kobs at 10000 uM GlcN6P (glucosamine-6-phosphate [6]): 0.000933 ± 9.1e-05 s⁻¹

G13U A39G
kcat (glucosamine-6-phosphate [1]): 0.00264 ± 0.00039 s⁻¹ | KM (glucosamine-6-phosphate [2]): 2.07 ± 0.52 mM | self-cleavage kobs at 40 uM GlcN6P (glucosamine-6-phosphate [7]): 5.19e-05 ± 1.1e-05 s⁻¹ | self-cleavage kobs at 160 uM GlcN6P (glucosamine-6-phosphate [3]): 0.000147 ± 3.4e-05 s⁻¹ | self-cleavage kobs at 640 uM GlcN6P (glucosamine-6-phosphate [4]): 0.000749 ± 0.00012 s⁻¹ | self-cleavage kobs at 2500 uM GlcN6P (glucosamine-6-phosphate [5]): 0.00177 ± 0.0003 s⁻¹ | self-cleavage kobs at 10000 uM GlcN6P (glucosamine-6-phosphate [6]): 0.00208 ± 0.00023 s⁻¹

G13U A39C
kcat (glucosamine-6-phosphate [1]): 0.000234 ± 2e-05 s⁻¹ | KM (glucosamine-6-phosphate [2]): 4.49 ± 0.6 mM | self-cleavage kobs at 640 uM GlcN6P (glucosamine-6-phosphate [4]): 2.78e-05 ± 6e-06 s⁻¹ | self-cleavage kobs at 2500 uM GlcN6P (glucosamine-6-phosphate [5]): 8.65e-05 ± 1e-05 s⁻¹ | self-cleavage kobs at 10000 uM GlcN6P (glucosamine-6-phosphate [6]): 0.000158 ± 2.7e-05 s⁻¹

G13A G59A
kcat (glucosamine-6-phosphate [1]): < 1e-05 s⁻¹

G13U U46G A52C C67U C70G
kcat (glucosamine-6-phosphate [1]): 2.41e-05 ± 6.8e-06 s⁻¹

G13U C67U
kcat (glucosamine-6-phosphate [1]): 0.000313 ± 1.9e-05 s⁻¹ | KM (glucosamine-6-phosphate [2]): 1.68 ± 0.23 mM | self-cleavage kobs at 160 uM GlcN6P (glucosamine-6-phosphate [3]): 2.74e-05 ± 7.6e-06 s⁻¹ | self-cleavage kobs at 640 uM GlcN6P (glucosamine-6-phosphate [4]): 8.78e-05 ± 1.1e-05 s⁻¹ | self-cleavage kobs at 2500 uM GlcN6P (glucosamine-6-phosphate [5]): 0.000177 ± 2e-05 s⁻¹ | self-cleavage kobs at 10000 uM GlcN6P (glucosamine-6-phosphate [6]): 0.000274 ± 2.4e-05 s⁻¹

G13A C68G
kcat (glucosamine-6-phosphate [1]): 1.81e-05 ± 5e-06 s⁻¹

G13U U57C
kcat (glucosamine-6-phosphate [1]): 4.31e-05 ± 6.8e-06 s⁻¹ | self-cleavage kobs at 2500 uM GlcN6P (glucosamine-6-phosphate [5]): 3.41e-05 ± 1.3e-05 s⁻¹ | self-cleavage kobs at 10000 uM GlcN6P (glucosamine-6-phosphate [6]): 3.63e-05 ± 1.8e-05 s⁻¹

A12U U31C
kcat (glucosamine-6-phosphate [1]): 0.011 ± 0.0038 s⁻¹ | KM (glucosamine-6-phosphate [2]): 2.07 ± 0.88 mM | self-cleavage kobs at 40 uM GlcN6P (glucosamine-6-phosphate [7]): 0.000254 ± 4.3e-05 s⁻¹ | self-cleavage kobs at 160 uM GlcN6P (glucosamine-6-phosphate [3]): 0.000727 ± 0.00017 s⁻¹ | self-cleavage kobs at 640 uM GlcN6P (glucosamine-6-phosphate [4]): 0.00178 ± 0.00062 s⁻¹ | self-cleavage kobs at 10000 uM GlcN6P (glucosamine-6-phosphate [6]): 0.0101 ± 0.0026 s⁻¹
